Source: US20030129189A1, “Tumor necrosis factor-gamma” (priority 1994, published 2003)

Experiments:
Test in all cases: flow cytometry on transiently transfected cells
[1] = molecular target: T1, TNFR2 on transiently transfected cells (UniProt P20333 23-461, limits assumed)
T1 construct: whole, on cells
T1 sequence (looked up): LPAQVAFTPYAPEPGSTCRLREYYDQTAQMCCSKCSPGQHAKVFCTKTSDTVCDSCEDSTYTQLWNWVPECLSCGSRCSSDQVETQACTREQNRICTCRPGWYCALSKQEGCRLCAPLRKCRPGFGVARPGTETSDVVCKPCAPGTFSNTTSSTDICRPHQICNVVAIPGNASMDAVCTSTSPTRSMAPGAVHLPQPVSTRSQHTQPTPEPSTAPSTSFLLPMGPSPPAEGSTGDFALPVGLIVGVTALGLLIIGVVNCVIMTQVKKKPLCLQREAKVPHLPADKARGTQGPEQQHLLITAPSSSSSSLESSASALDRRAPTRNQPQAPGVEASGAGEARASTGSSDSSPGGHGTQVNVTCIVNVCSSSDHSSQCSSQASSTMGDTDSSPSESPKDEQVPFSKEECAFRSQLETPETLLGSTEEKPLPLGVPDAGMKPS
Protocol: (§1) One million cells, in 0.1 ml of FACS buffer (PBS, 0.1% BSA, 0.1% NaN₃), were incubated with 0.1-1 microgram of protein or antibody at RT for 15 min. The cells were washed with 3 ml of FACS buffer, reacted with biotinylated primary antibody, and stained with PE-conjugated secondary antibody at RT for 15 min. Cells were then washed again, resuspended in 0.5 microgram/ml of propidium iodide, and live cells were gated and analyzed on a FACScan using the CellQuest software (BD Biosciences).

[2] = molecular target: T2, LTβR on transiently transfected cells (UniProt P36941 31-435, limits assumed)
T2 construct: whole, on cells
Protocol: as §1

[3] = molecular target: T3, BCMA on transiently transfected cells (UniProt Q02223 1-184, limits assumed)
T3 construct: whole, on cells
T3 sequence (looked up): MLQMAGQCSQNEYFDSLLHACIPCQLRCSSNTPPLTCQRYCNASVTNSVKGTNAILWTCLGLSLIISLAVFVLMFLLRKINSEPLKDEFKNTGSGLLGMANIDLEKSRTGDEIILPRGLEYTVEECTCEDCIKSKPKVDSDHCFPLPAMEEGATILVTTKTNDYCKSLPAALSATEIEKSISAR
Protocol: as §1

[4] = molecular target: T4, DR4 on transiently transfected cells (UniProt O00220 24-468, limits assumed)
T4 construct: whole, on cells
T4 sequence (looked up): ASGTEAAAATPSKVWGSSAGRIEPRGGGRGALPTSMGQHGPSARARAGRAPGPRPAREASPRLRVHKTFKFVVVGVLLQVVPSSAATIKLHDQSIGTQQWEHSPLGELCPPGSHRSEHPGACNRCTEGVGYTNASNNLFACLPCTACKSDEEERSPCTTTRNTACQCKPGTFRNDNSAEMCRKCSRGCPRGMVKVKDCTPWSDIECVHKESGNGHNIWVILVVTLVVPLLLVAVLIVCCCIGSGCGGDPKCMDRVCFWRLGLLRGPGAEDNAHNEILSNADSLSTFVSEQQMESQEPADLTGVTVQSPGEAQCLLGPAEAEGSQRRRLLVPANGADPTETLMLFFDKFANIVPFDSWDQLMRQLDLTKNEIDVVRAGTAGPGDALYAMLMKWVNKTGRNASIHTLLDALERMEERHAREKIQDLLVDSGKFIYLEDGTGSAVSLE
Protocol: as §1

[5] = molecular target: T5, DR6 on transiently transfected cells (UniProt O75509 42-655, limits assumed)
T5 construct: whole, on cells
T5 sequence (looked up): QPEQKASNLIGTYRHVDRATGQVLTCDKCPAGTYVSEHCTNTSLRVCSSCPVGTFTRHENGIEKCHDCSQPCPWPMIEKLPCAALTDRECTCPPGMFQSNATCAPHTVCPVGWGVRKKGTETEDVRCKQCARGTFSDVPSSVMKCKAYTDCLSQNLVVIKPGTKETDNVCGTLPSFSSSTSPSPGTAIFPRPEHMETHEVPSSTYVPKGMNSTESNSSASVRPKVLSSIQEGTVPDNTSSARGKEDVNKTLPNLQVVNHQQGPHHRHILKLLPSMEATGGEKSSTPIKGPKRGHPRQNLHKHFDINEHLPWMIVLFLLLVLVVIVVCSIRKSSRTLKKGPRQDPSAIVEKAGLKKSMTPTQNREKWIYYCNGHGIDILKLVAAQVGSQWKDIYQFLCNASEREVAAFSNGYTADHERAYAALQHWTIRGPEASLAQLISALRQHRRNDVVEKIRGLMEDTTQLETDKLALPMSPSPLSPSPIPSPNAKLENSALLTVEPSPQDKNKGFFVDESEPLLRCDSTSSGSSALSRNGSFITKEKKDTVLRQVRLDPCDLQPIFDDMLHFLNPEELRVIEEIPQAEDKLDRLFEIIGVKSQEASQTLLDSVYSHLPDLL
Protocol: as §1

[6] = molecular target: T6, DcR1 on transiently transfected cells (UniProt O14798 26-236, limits assumed)
T6 construct: whole, on cells
T6 sequence (looked up): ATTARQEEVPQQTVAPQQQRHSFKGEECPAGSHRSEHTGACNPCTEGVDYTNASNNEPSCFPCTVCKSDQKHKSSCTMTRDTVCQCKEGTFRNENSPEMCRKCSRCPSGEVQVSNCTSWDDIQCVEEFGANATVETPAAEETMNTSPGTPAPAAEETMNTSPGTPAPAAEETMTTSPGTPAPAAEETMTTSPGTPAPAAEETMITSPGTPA
Protocol: as §1

[7] = molecular target: T7, HveA on transiently transfected cells (UniProt Q92956 39-283, limits assumed)
T7 construct: whole, on cells
T7 sequence (looked up): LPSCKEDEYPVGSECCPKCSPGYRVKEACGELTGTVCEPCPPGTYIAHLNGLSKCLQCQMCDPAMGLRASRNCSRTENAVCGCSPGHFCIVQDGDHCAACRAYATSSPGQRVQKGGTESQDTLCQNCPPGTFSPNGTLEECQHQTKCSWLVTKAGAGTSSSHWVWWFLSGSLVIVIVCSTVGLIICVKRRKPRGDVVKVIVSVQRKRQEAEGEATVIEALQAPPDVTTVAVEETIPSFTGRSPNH
Protocol: as §1

[8] = molecular target: T8, AITR on transiently transfected cells (UniProt Q9Y5U5 26-241, limits assumed)
T8 construct: whole, on cells
T8 sequence (looked up): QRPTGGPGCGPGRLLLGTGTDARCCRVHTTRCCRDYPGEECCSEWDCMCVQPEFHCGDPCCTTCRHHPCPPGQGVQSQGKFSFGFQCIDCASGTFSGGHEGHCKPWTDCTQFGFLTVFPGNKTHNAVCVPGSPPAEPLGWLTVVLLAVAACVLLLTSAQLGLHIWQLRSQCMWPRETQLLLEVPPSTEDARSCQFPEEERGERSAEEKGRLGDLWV
Protocol: as §1

Measured: binding result

T2 sequence (P36941 31-435 limits assumed): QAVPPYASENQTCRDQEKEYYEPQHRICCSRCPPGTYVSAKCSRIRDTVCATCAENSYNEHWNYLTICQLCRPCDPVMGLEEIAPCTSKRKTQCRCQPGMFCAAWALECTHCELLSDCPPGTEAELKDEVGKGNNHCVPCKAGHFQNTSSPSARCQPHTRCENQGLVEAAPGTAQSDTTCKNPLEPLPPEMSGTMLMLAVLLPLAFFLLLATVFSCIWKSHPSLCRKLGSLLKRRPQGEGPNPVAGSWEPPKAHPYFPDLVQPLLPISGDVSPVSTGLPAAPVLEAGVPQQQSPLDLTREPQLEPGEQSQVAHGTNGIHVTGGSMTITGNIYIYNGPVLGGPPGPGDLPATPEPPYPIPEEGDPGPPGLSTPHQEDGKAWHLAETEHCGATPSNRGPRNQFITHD

B1: FLAG-tagged soluble TNF-gamma-beta (aa 72-251) (ligand)
chain: LKGQEFAPSHQQVYAPLRADGDKPRAHLTVVRQTPTQHFKNQFPALHWEHELGLAFTKNRMNYTNKFLLIPESGDYFIYSQVTFRGMTSECSEIRQAGRPNKPDSITVVITKVTDSYPEPTQLLMGTKSVCEVGSNWFQPIYLGAMFSLQEGDKLMVNVSDISLVDYTKEDKTFFGAFLL
notes: also called FLAG-TL1β; FLAG-TNF-gamma-beta; not shown: The N-terminal FLAG tag (pFLAG-CMV-1 vector) and any vector linker
no binding: all assays above
